{"source": "the RNAGym collection of RNA variant scans (doi:10.1093/molbev/msab373)", "parents": {"B1": {"name": "Azoarcus group I ribozyme (parent)", "chain": "GUGCCUUGCGCCGGGAAACCACGCAAGGGAUGGUGUCAAAUUCGGCGAAACCUAAGCGCCCGCCCGGGCGUAUGGCAACGCCGAGCCAAGCUUCGGCGCCUGCGCCGAUGAAGGUGUAGAGACUAGACGGCACCCACCUAAGGCAAACGCUAUGGUGAAGGCAUAGUCCAGGGAGUGGCGAAAGUCACACAAACCGG"}}, "data": [{"variants_of": "B1", "test": "reverse-splicing fitness (ratio to wild type); higher = more active; in vitro selection; Mg2+ level not given", "method_in_brief": "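An in vitro group I ribozyme library with randomized positions was T7-transcribed and gel-purified. In triplicate, 10 pmol RNA in EPPS pH 7.5 was reacted with 50 pmoles of a 30-nt RNA substrate for 1 h at 37 °C across several added MgCl2 levels (1–48 mM), then stopped with EDTA. Products were reverse transcribed from a substrate-complementary primer, PCR-amplified and sequenced (HiSeq 4000). Fitness is a variant's read proportion after selection over that before, normalised to wild type.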", "values": [{"variant": "GUGCCUUGCGCCGGGAAACCACGCAAGGGAUGGUGUCAAAUUCGGCGAAACCUAAGCGCCCGCCCGGGCGUAUGGCAACGCUGAGCCAAGCUUCGGCGCCUGCGCCGAUGUAGGUGUAGAGACUAGACGGCACCCACCUAAGGCGAACGCUAUGGUGAAGGCAUAGUCCAGGGAGUGGCGAAAGUCACACAAACCGG", "note": "[C82U A111U A145G]", "reverse-splicing fitness": 0.332}, {"variant": "GUGCCUUGCGCCGGGAAACCACGCAAGGGAUGGUGUCAAAUUCGGCGAAACCUAAGCGCCCGCCCGGGCGUAUGGCAACGCUGAGCCAAGCUUCGGCGCCUGCGCCGAUGUAGGUGUAGAGACUAGACGGCACCCACCUAAGGCGAACGAUAUGGUGAAGGCAUAGUCUAGGGAGUGGCGAAAGUCACACAAACCGG", "note": "[C82U A111U A145G C150A C169U]", "reverse-splicing fitness": 0.0105}, {"variant": "GUGCCUUGCGCCGGGAAACCACGCAAGGGAUGGUGUCAAAUUCGGCGAAACCUAAGCGCCCGCCCGGGCGUAUGGCAACGCUGAGCCAAGCUUCGGCGCCUGCGCCGAUGUAGGUGUAGAGACUAGACGGCACCCACCUAAGGCGAACGAUAUGGUGAAGGCAUAGUCAAGGGAGUGGCGAAAGUCACACAAACCGG", "note": "[C82U A111U A145G C150A C169A]", "reverse-splicing fitness": 0.00979}, {"variant": "GUGCCUUGCGCCGGGAAACCACGCAAGGGAUGGUGUCAAAUUCGGCGAAACCUAAGCGCCCGCCCGGGCGUAUGGCAACGCUGAGCCAAGCUUCGGCGCCUGCGCCGAUGUAGGUGUAGAGACUAGACGGCACCCACCUAAGGCGAACGAUAUGGUGAAGGCAUAGUCGAGGGAGUGGCGAAAGUCACACAAACCGG", "note": "[C82U A111U A145G C150A C169G]", "reverse-splicing fitness": 0.00847}, {"variant": "GUGCCUUGCGCCGGGAAACCACGCAAGGGAUGGUGUCAAAUUCGGCGAAACCUAAGCGCCCGCCCGGGCGUAUGGCAACGCUGAGCCAAGCUUCGGCGCCUGCGCCGAUGUAGGUGUAGAGACUAGACGGCACCCACCUAAGGCGAACGAUAUGGUGAAGGCAUAGUCCAGGGAGUGGCGAAAGUCACACAAACCGG", "note": "[C82U A111U A145G C150A]", "reverse-splicing fitness": 0.0405}, {"variant": "GUGCCUUGCGCCGGGAAACCACGCAAGGGAUGGUGUCAAAUUCGGCGAAACCUAAGCGCCCGCCCGGGCGUAUGGCAACGCUGAGCCAAGCUUCGGCGCCUGCGCCGAUGUAGGUGUAGAGACUAGACGGCACCCACCUAAGGCGAACGAUAUGGUGAAGGCAUAGUCAAGGGAGCGGCGAAAGUCACACAAACCGG", "note": "[C82U A111U A145G C150A C169A U176C]", "reverse-splicing fitness": 0.0216}, {"variant": "GUGCCUUGCGCCGGGAAACCACGCAAGGGAUGGUGUCAAAUUCGGCGAAACCUAAGCGCCCGCCCGGGCGUAUGGCAACGCUGAGCCAAGCUUCGGCGCCUGCGCCGAUGUAGGUGUAGAGACUAGACGGCACCCACCUAAGGCGAACGAUAUGGUGAAGGCAUAGUCAAGGGAGGGGCGAAAGUCACACAAACCGG", "note": "[C82U A111U A145G C150A C169A U176G]", "reverse-splicing fitness": 0.00768}, {"variant": "GUGCCUUGCGCCGGGAAACCACGCAAGGGAUGGUGUCAAAUUCGGCGAAACCUAAGCGCCCGCCCGGGCGUAUGGCAACGCUGAGCCAAGCUUCGGCGCCUGCGCCGAUGUAGGUGUAGAGACUAGACGGCACCCACCUAAGGCGAACGAUAUGGUGAAGGCAUAGUCAAGGGAGAGGCGAAAGUCACACAAACCGG", "note": "[C82U A111U A145G C150A C169A U176A]", "reverse-splicing fitness": 0.0186}, {"variant": "GUGCCUUGCGCCGGGAAACCACGCAAGGGAUGGUGUCAAAUUCGGCGAAACCUAAGCGCCCGCCCGGGCGUAUGGCAACGCUGAGCCAAGCUUCGGCGCCUGCGCCGAUGUAGGUGUAGAGACUAGACGGCACCCACCUAAGGCCAACGCUAUGGUGAAGGCAUAGUCUAGGGAGGGGCGAAAGUCACACAAACCGG", "note": "[C82U A111U A145C C169U U176G]", "reverse-splicing fitness": 0.00463}, {"variant": "GUGCCUUGCGCCGGGAAACCACGCAAGGGAUGGUGUCAAAUUCGGCGAAACCUAAGCGCCCGCCCGGGCGUAUGGCAACGCUGAGCCAAGCUUCGGCGCCUGCGCCGAUGUAGGUGUAGAGACUAGACGGCACCCACCUAAGGCCAACGCUAUGGUGAAGGCAUAGUCUAGGGAGCGGCGAAAGUCACACAAACCGG", "note": "[C82U A111U A145C C169U U176C]", "reverse-splicing fitness": 0.0103}, {"variant": "GUGCCUUGCGCCGGGAAACCACGCAAGGGAUGGUGUCAAAUUCGGCGAAACCUAAGCGCCCGCCCGGGCGUAUGGCAACGCUGAGCCAAGCUUCGGCGCCUGCGCCGAUGUAGGUGUAGAGACUAGACGGCACCCACCUAAGGCCAACGCUAUGGUGAAGGCAUAGUCUAGGGAGAGGCGAAAGUCACACAAACCGG", "note": "[C82U A111U A145C C169U U176A]", "reverse-splicing fitness": 0.0134}, {"variant": "GUGCCUUGCGCCGGGAAACCACGCAAGGGAUGGUGUCAAAUUCGGCGAAACCUAAGCGCCCGCCCGGGCGUAUGGCAACGCUGAGCCAAGCUUCGGCGCCUGCGCCGAUGUAGGUGUAGAGACUAGACGGCACCCACCUAAGGCGAACGAUAUGGUGAAGGCAUAGUCGAGGGAGGGGCGAAAGUCACACAAACCGG", "note": "[C82U A111U A145G C150A C169G U176G]", "reverse-splicing fitness": 0.00627}, {"variant": "GUGCCUUGCGCCGGGAAACCACGCAAGGGAUGGUGUCAAAUUCGGCGAAACCUAAGCGCCCGCCCGGGCGUAUGGCAACGCUGAGCCAAGCUUCGGCGCCUGCGCCGAUGUAGGUGUAGAGACUAGACGGCACCCACCUAAGGCGAACGAUAUGGUGAAGGCAUAGUCGAGGGAGCGGCGAAAGUCACACAAACCGG", "note": "[C82U A111U A145G C150A C169G U176C]", "reverse-splicing fitness": 0.0254}, {"variant": "GUGCCUUGCGCCGGGAAACCACGCAAGGGAUGGUGUCAAAUUCGGCGAAACCUAAGCGCCCGCCCGGGCGUAUGGCAACGCUGAGCCAAGCUUCGGCGCCUGCGCCGAUGUAGGUGUAGAGACUAGACGGCACCCACCUAAGGCGAACGAUAUGGUGAAGGCAUAGUCGAGGGAGAGGCGAAAGUCACACAAACCGG", "note": "[C82U A111U A145G C150A C169G U176A]", "reverse-splicing fitness": 0.0146}, {"variant": "GUGCCUUGCGCCGGGAAACCACGCAAGGGAUGGUGUCAAAUUCGGCGAAACCUAAGCGCCCGCCCGGGCGUAUGGCAACGCUGAGCCAAGCUUCGGCGCCUGCGCCGAUGUAGGUGUAGAGACUAGACGGCACCCACCUAAGGCGAACGAUAUGGUGAAGGCAUAGUCCAGGGAGAGGCGAAAGUCACACAAACCGG", "note": "[C82U A111U A145G C150A U176A]", "reverse-splicing fitness": 0.0215}]}]}
